Assay results taken from paper PMC13397619.

B1: NLV2 TCR alpha chain (CDR3α only) (parent)
chain: AGPMKTSYDKVI

Variants of: B1
Experiment: T-Switch: Jurkat TCRβ−/− cells expressing a CDR3 saturation-mutagenesis library, stained with two peptide-HLA-A*02:01 tetramers (original and novel peptide) plus anti-CD3, FACS-sorted into four gates, gDNA sequenced
Conditions: tetramers 1 µg/mL, 30 min on ice, SP, DP and SW gates expanded about 10 days between rounds ('two to three rounds of selection' in the Methods), unresolved parent, parent is a CDR3 fragment, scale: fold enrichment, numbering: sequential-on-construct, sequence starts at 1
[1] = with both tetramers (double-negative gate, binds neither): HLA-A*02:01 with … and with …, gate DN: OPPOSITE: higher = more of the variant in the gate that binds neither peptide = LESS binding (or no expression; inferred). Fold enrichment of the CDR3 variant in one FACS gate of a two-tetram
[2] = with both tetramers (double-positive gate): HLA-A*02:01 with … and with …, gate DP: higher = more of the variant in the gate that binds both peptides. Fold enrichment of the CDR3 variant in one FACS gate of a two-tetramer stain. SP/DP/SW gates were expanded and re-sorted bef

Variant | enrichment [1] | enrichment [2]
[…] (CDR3 as printed); T6N derived by comparing it with the table's wild-type CDR3 AGPMKTSYDKVI | 0.879 | 0
[…] (CDR3 as printed); P3A derived by comparing it with the table's wild-type CDR3 AGPMKTSYDKVI | 1.21 | 0
[…] (CDR3 as printed); K5A derived by comparing it with the table's wild-type CDR3 AGPMKTSYDKVI | 0.428 | 0
[…] (CDR3 as printed); T6A derived by comparing it with the table's wild-type CDR3 AGPMKTSYDKVI | 0.82 | 0
[…] (CDR3 as printed); T6Q derived by comparing it with the table's wild-type CDR3 AGPMKTSYDKVI | 1.14 | 0
[…] (CDR3 as printed); G2D derived by comparing it with the table's wild-type CDR3 AGPMKTSYDKVI | 1.02 | 0
[…] (CDR3 as printed); K5G derived by comparing it with the table's wild-type CDR3 AGPMKTSYDKVI | 0.602 | 0
[…] (CDR3 as printed); P3S derived by comparing it with the table's wild-type CDR3 AGPMKTSYDKVI | 1.18 | 0
[…] (CDR3 as printed); M4H derived by comparing it with the table's wild-type CDR3 AGPMKTSYDKVI | 0.903 | 0
[…] (CDR3 as printed); P3N derived by comparing it with the table's wild-type CDR3 AGPMKTSYDKVI | 1.07 | 0
[…] (CDR3 as printed); T6F derived by comparing it with the table's wild-type CDR3 AGPMKTSYDKVI | 1.26 | 0
[…] (CDR3 as printed); A1H derived by comparing it with the table's wild-type CDR3 AGPMKTSYDKVI | 0.735 | 0
[…] (CDR3 as printed); K5H derived by comparing it with the table's wild-type CDR3 AGPMKTSYDKVI | 0.696 | 0
[…] (CDR3 as printed); D9Q derived by comparing it with the table's wild-type CDR3 AGPMKTSYDKVI | 0.673 | 0
[…] (CDR3 as printed); A1P derived by comparing it with the table's wild-type CDR3 AGPMKTSYDKVI | 0.883 | 0
[…] (CDR3 as printed); S7E derived by comparing it with the table's wild-type CDR3 AGPMKTSYDKVI | 1.01 | 0
[…] (CDR3 as printed); S7G derived by comparing it with the table's wild-type CDR3 AGPMKTSYDKVI | 0.911 | 0
[…] (CDR3 as printed); K10S derived by comparing it with the table's wild-type CDR3 AGPMKTSYDKVI | 1.01 | 0
[…] (CDR3 as printed); S7F derived by comparing it with the table's wild-type CDR3 AGPMKTSYDKVI | 1.22 | 0

Variant | enrichment [1] | enrichment [2]
[…] (CDR3 as printed); K10N derived by comparing it with the table's wild-type CDR3 AGPMKTSYDKVI | 1.16 | 0
[…] (CDR3 as printed); D9Y derived by comparing it with the table's wild-type CDR3 AGPMKTSYDKVI | 1.09 | 0
[…] (CDR3 as printed); P3W derived by comparing it with the table's wild-type CDR3 AGPMKTSYDKVI | 0.887 | 0
[…] (CDR3 as printed); D9L derived by comparing it with the table's wild-type CDR3 AGPMKTSYDKVI | 0.93 | 0
[…] (CDR3 as printed); V11K derived by comparing it with the table's wild-type CDR3 AGPMKTSYDKVI | 1.49 | 0
[…] (CDR3 as printed); V11W derived by comparing it with the table's wild-type CDR3 AGPMKTSYDKVI | 0.939 | 0
[…] (CDR3 as printed); I12D derived by comparing it with the table's wild-type CDR3 AGPMKTSYDKVI | 0.942 | 0
[…] (CDR3 as printed); P3C derived by comparing it with the table's wild-type CDR3 AGPMKTSYDKVI | 0.884 | 0
[…] (CDR3 as printed); Y8D derived by comparing it with the table's wild-type CDR3 AGPMKTSYDKVI | 0.393 | 40.5
[…] (CDR3 as printed); T6I derived by comparing it with the table's wild-type CDR3 AGPMKTSYDKVI | 0.515 | 0
[…] (CDR3 as printed); A1Q derived by comparing it with the table's wild-type CDR3 AGPMKTSYDKVI | 0.89 | 0
[…] (CDR3 as printed); A1I derived by comparing it with the table's wild-type CDR3 AGPMKTSYDKVI | 0.798 | 0
[…] (CDR3 as printed); S7W derived by comparing it with the table's wild-type CDR3 AGPMKTSYDKVI | 0.807 | 0
[…] (CDR3 as printed); T6P derived by comparing it with the table's wild-type CDR3 AGPMKTSYDKVI | 0.299 | 0
[…] (CDR3 as printed); M4R derived by comparing it with the table's wild-type CDR3 AGPMKTSYDKVI | 0.913 | 0
[…] (CDR3 as printed); D9S derived by comparing it with the table's wild-type CDR3 AGPMKTSYDKVI | 1.04 | 0
[…] (CDR3 as printed); P3V derived by comparing it with the table's wild-type CDR3 AGPMKTSYDKVI | 1.02 | 0
[…] (CDR3 as printed); V11C derived by comparing it with the table's wild-type CDR3 AGPMKTSYDKVI | 1.08 | 0
[…] (CDR3 as printed); K10T derived by comparing it with the table's wild-type CDR3 AGPMKTSYDKVI | 1.24 | 0

Variant | enrichment [1] | enrichment [2]
[…] (CDR3 as printed); Y8W derived by comparing it with the table's wild-type CDR3 AGPMKTSYDKVI | 1.01 | 0
[…] (CDR3 as printed); K10Y derived by comparing it with the table's wild-type CDR3 AGPMKTSYDKVI | 0.393 | 0
[…] (CDR3 as printed); K5W derived by comparing it with the table's wild-type CDR3 AGPMKTSYDKVI | 0.659 | 0
[…] (CDR3 as printed); A1T derived by comparing it with the table's wild-type CDR3 AGPMKTSYDKVI | 0.871 | 0
[…] (CDR3 as printed); K10G derived by comparing it with the table's wild-type CDR3 AGPMKTSYDKVI | 1 | 0
[…] (CDR3 as printed); G2Y derived by comparing it with the table's wild-type CDR3 AGPMKTSYDKVI | 0.902 | 0
[…] (CDR3 as printed); A1M derived by comparing it with the table's wild-type CDR3 AGPMKTSYDKVI | 0.803 | 0
[…] (CDR3 as printed); P3D derived by comparing it with the table's wild-type CDR3 AGPMKTSYDKVI | 1.14 | 0
[…] (CDR3 as printed); M4S derived by comparing it with the table's wild-type CDR3 AGPMKTSYDKVI | 0.52 | 0
[…] (CDR3 as printed); P3R derived by comparing it with the table's wild-type CDR3 AGPMKTSYDKVI | 1.32 | 0
[…] (CDR3 as printed); D9C derived by comparing it with the table's wild-type CDR3 AGPMKTSYDKVI | 0.717 | 0
[…] (CDR3 as printed); A1W derived by comparing it with the table's wild-type CDR3 AGPMKTSYDKVI | 0.77 | 0
[…] (CDR3 as printed); P3T derived by comparing it with the table's wild-type CDR3 AGPMKTSYDKVI | 0.962 | 0
[…] (CDR3 as printed); G2T derived by comparing it with the table's wild-type CDR3 AGPMKTSYDKVI | 0.533 | 0
[…] (CDR3 as printed); D9I derived by comparing it with the table's wild-type CDR3 AGPMKTSYDKVI | 1.01 | 0
[…] (CDR3 as printed); T6G derived by comparing it with the table's wild-type CDR3 AGPMKTSYDKVI | 1.02 | 0
[…] (CDR3 as printed); S7N derived by comparing it with the table's wild-type CDR3 AGPMKTSYDKVI | 1.31 | 0
[…] (CDR3 as printed); S7P derived by comparing it with the table's wild-type CDR3 AGPMKTSYDKVI | 0.995 | 0
[…] (CDR3 as printed); K5L derived by comparing it with the table's wild-type CDR3 AGPMKTSYDKVI | 0.992 | 0
